Measured values published in the nanobody polyreactivity screen of Harvey et al. (2022).

assay: yeast display, Sf9 membrane polyspecificity reagent, FACS + sequencing; frameworks hold sequencing errors
Procedure, shortened: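 A nanobody's polyreactivity label depends on the gate it was sorted from. Yeast display cells were stained with 10% biotinylated, detergent-solubilized Sf9 membrane reagent for 1 hour at 4 °C, enriched on streptavidin microbeads and sorted by FACS. The low and high (top ~1%) gates were set on anti-HA fluorescence for expression and streptavidin fluorescence for reagent binding.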

Sequence	polyreactivity (PSR sort gate)
QVQLVESVGGLVQAGGSLRLSCAASGRTFSEYAMGWYRQAPGEERELVAAITSTGGITYYADSVKGRFTISRDNAKNTVYLQMNSLKPEDTAVYYCAARAYTWGPAGQVDKYYYWGQGTQVTVSS	high polyreactivity
QVQLVESVGGLVQAGGSLRLSCAASGRTFSRFAMGWYRKAPGKERELVAAISYSGGRTYYADSVKGRFTISRDNAKNTVYLQMNSLKPEDTAVYYCAASWPGDTVDYDYWGQGTQVTVSS	high polyreactivity
QVQLVESVGGLVQAGGSLRLSCAASGRTFYHYAIGWYIQAPGQERELVAAITYRGGNTYYADSVKGRFTISRDNAKNTVYLQMNRLKPEDTAVYYCAKQGVRRHYGYDYWGQGTQVTVSS	high polyreactivity
QVQLVESVGGLVQAGGSLRLSCAASGRTFYQYALGWYRQAPGKERELVAVINGGGSTNYADSVKGRFTISRDNAKNTVYLQMNSLKPEDTAVYYCNADGRRGRYDYWGQGTQVTVSS	low polyreactivity
QVQLVESVGGLVQAGGSLRLSCAASGRTFYYYTMGWYRQAPGKEWELVAAISSTGNTYYADSVKGRFTISRDNAKNTVYLHMISLQPEDTAVYYCAALGYVKLLAQAYEYWGHGTQVTVSS	high polyreactivity
QVQLVESVGGLVQAGGSLRLSCAASGRTLYPNAMGWYRQAPGKERELVASISWSGVSTYYADSVKGRFTISRDNAKNTVYLQMNSLKPEDTAVYYCNAVGYWSDGLVWYEGDYWGQGTQVTVSS	low polyreactivity
QVQLVESVGGLVQAGGSLRLSCAASGSIFAGYAMGWYRQAPGKERELVAAISRRGGRTYYADSVKGRFTISRDIAKNTVYLQMNSLKPEVTAVYYCNRDYRRSTGSPEYDYWGQGTQVTVSS	high polyreactivity
QVQLVESVGGLVQAGGSLRLSCAASGSIFASNSMGWYRQETGKEREFVAAITWRTDRTYYADSVKGRFTISRDNAKNTLYFQMNSLKPEDTAVYYFAADTWFYRFYYWGQGTQVTVSS	high polyreactivity
QVQLVESVGGLVQAGGSLRLSCAASGSIFEQNAMGWYRQAPGKERELVAGINEGGGSTYYADSVKGRFTISRDNAKNTVYLQMNSLKPEDTAVYYCAAEYYDDFSYGWYDYWGQGTQVTVSS	high polyreactivity
QVQLVESVGGLVQAGGSLRLSCAASGSIFFSYAMGWYRQAPGKERELVAGINWSGGSTYADSVKGRFTISRDNAKNTVYLQMNSLKPEDTAVYYCAAKYYSERSRYHYWGQGTQVTVSS	low polyreactivity
QVQLVESVGGLVQAGGSLRLSCAASGSIFGDNAMGWYRQAPGKERELVAAITWRGGSTYYADSVKGRFTISRDNAKNTVYLQMNSLKPEDTAVYYCATDSRSHRDYWGQGTQVTVSS	low polyreactivity
QVQLVESVGGLVQAGGSLRLSCAASGSIFIANAIGWYRQAPGKERELVAAISWSGGRTYYADSVKGRFTISRDNAKNTVYLQMNSLKPEDTAVYYCAAVYGAYDSGRFLSFGNFDYWGQGTQVTVSS	high polyreactivity
QVQLVESVGGLVQAGGSLRLSCAASGSIFLQNAMGGYRQAPGKERELVAAITNGGSTNYADSVKGRFTISRDNAKNTVYLQMNSLKPEDTAVYYCAAYPLYTGSYDRGGYWGQGTLVTVSS	low polyreactivity
QVQLVESVGGLVQAGGSLRLSCAASGSIFRRYTMGWYRQAPGKERELFAAISRVGNTNYAHSVKGRFTISRDNAKNTVYLQMNSLKPEATAVYYCAARAIGYRYTPGLNYWGQGTQVTVSS	high polyreactivity
QVQLVESVGGLVQAGGSLRLSCAASGSIFWSNAMGWYRQAPGKERELVARISTSGGRTYYADSVKGRFTISRDNAKNTVYLQMNSLKPEDTAVYYCNAGKLYYRWLYDYWGQGTQVTVSS	high polyreactivity
QVQLVESVGGLVQAGGSLRLSCAASGSIFYPNAMGLYRQAPGKERELVAAISSSGGTNYADSVKGRFTISRDNAKNTVYLQMNSLKPEDTAVYYCNARDKVRYRYSRMDYWGQGTQVTVSS	low polyreactivity
QVQLVESVGGLVQAGGSLRLSCAASGSIIFTNVMGWYRQAPGKDREFVAAITGGGGSTYYADSVKGRFTISRDNAKNTVYLQMNSLKPEDTAVYYCATKAKPRSGYNYWGQGTQVTVSS	low polyreactivity
QVQLVESVGGLVQAGGSLRLSCAASGSIIKVYAMGWYRQAPGKERELVAGIRGSGGRTYYADSVKGRFTISRDNAKNTVYLQMNSLKPEDTAVYYCNARNPGRLGRFDYWGQGTQVTVSS	low polyreactivity
QVQLVESVGGLVQAGGSLRLSCAASGSNFSKKTMGGSRQAHGKERELVAAITTRGSSTYYADSVKGRFTISRDNAKNTVYLQMNSLKPVDTAVYYCNAPYRVTGGRYRWYDYWGQGTQVTVSS	high polyreactivity
QVQLVESVGGLVQAGGSLRLSCAASGSSIPYYAMGWYRQAPGKERELVARITWRSTSTYADSVKGRFTISRDNAKNTVYLQMNSLKPEDTAVYYCAVRLLSTYIIEYEHWGQGTQVTLSS	low polyreactivity

Sequence	polyreactivity (PSR sort gate)
QVQLVESVGGLVQAGGSLRLSCAASGSTFAYNDMGWYRQAPGKERELVPDIRSGGNTNYADSVKGRFTISRDNAKNTVYLQMNSLKPEDTAVYYCATDGYRIDVYHPDYRYDYWGQGTQVTVSS	low polyreactivity
QVQLVESVGGLVQAGGSLRLSCAASGSTFEDNAMGWYRQAPGKERELVAAITTGGGSTYYADSVKGRFTISRDNAKNTVYLQINSLKPEDTEVYYCNAEHGWFGLLFIATANEYDYLGQGTQVTVSS	low polyreactivity
QVQLVESVGGLVQAGGSLRLSCAASGSTFGINAMGWYRQAPGKERELVASITRRGGSTYYADSVKGRFTISRDNAKNTVYLQMNSLKPEDTAVYYCNKTYRYGTPLYDYWGQGTQVTVSS	high polyreactivity
QVQLVESVGGLVQAGGSLRLSCAASGSTFKYYAMGWYRPAPGKERELVAAITYSGGRTYYADSVKGRFTISRDNAKNTVYLQMNSLNPEDTAGYYCAARRGREDDYWGQGTQVTVSS	low polyreactivity
QVQLVESVGGLVQAGGSLRLSCAASGSTFPFYAMGWYRQAPGKERELVAAITSGGSTYADSVKGRFTISRDNAKNTVYLQMNSLKPEDTAVYYCAASWPRWWRFGYWGQGTQVTVSS	low polyreactivity
QVQLVESVGGLVQAGGSLRLSCAASGSTFTYNDLGWYRQAPGKERELVARITFSSGRTYYADSVKGRFTISRDNAKNTVYLQMNSLTPEDTAVYDCARQWYWPPGYYIGQGYEYWGQGTQVTVSS	low polyreactivity
QVQLVESVGGLVQAGGSLRLSCAASGSTIQGNSMGWYRQAHGKERELVAAISRSGGSTYADSVKGRFTISRDNAKNTVYLEMHSLKPEDTAVFYCAAYSGVGYLWFDYWGQGTQVTVSS	low polyreactivity
QVQLVESVGGLVQAGGSLRLSCAASGSTLSAYVMGWYRQAPGKERELVAAITRGGNTYYADSVKGRFTISRDNAKNTVYLQMNSLKPEDTAVYYCAARTYVSYCYYTLNYWGQGTQVTVSS	high polyreactivity
QVQLVESVGGLVQAGGSLRLSCAASGYNFWSNTMGWYRQAPGKERELVAAISQSTASTYYADSVKGRFTISRDNAKNTVYLQMNSLKPEDTAVYYCAAYYNFGDYEYDYWGQGTQVTVSS	low polyreactivity
QVQLVESVGGLVQAGGSLRLSCADSGLTFVDYAMGWYRQAPGKERELVAAITSSGGSITYYADSVKGRFTISRDNAKNTVYLQMKSLKPEDTAVYYCNADYGIYTDSFRGPDYESRGQGTQVTVSS	low polyreactivity
QVQLVESVGGLVQAGGSLRLSCDASGRIFVKYAMGGSRQAPGKERELVASITSGGRTNYADSVKGRFTISRDNAKNTVYLQMNSLKPEDTAVYYCAADARQSRYNYWGQGTQVTVSS	high polyreactivity
QVQLVESVGGLVQAGGSLRLSCSASGLIFYDYDMGWYRQAPGKERELVAAISNDASTYYAHSVKGRFTISRDNAKNTVYFQMNSLKTEDTAVYFCAAEPYVFGLSSKPFWYNYWGQGTQVTVSS	low polyreactivity
QVQLVESVGGLVQAGGSLRLSSASSGRIFWDYAIGCYRQAPGKERELVASISTDGSTYYADSVKGRFTISRDNAKNTVYLQMNSLKPEDTEVYFCAVRGLYRYIRWGYPSYYYWGLGTQVTVSS	low polyreactivity
QVQLVESVGGLVQAGGSLRLTCAASVFTFGYYAMGWYRQAPGKERELVAAITWSGGRTYYADSVKGRFTISRDNAKYTVYLQMNSLKPEDTAVYYCAVETLWQGSEYWGQGTQVTVSS	low polyreactivity
QVQLVESVGGLVQAGGSLSLSCAASGRMLVRNAMGWYRQAAGKERELVAVIRWSGGRTSYADSVKGRFTISRDNAKNTVYLQMNSLKPEDTAVYYCNKGGSYPTSNYKSYWVGVDYCGQGTQVTVSS	low polyreactivity
QVQLVESVGGLVQAGGSLSLSCAASGSIFIYNARGWYRQAPGKERELVATISSGGSTTYADSVKGRFTISRDNAKNTVYLQMNSLKPEDTAVYYCATYDPPDQYFYLGYYYWGANDYWGQGTQVTVSS	low polyreactivity
QVQLVESVGGLVQAGGSLSLTCAASARTLNIYAMGWNRAAPGKERELVAAISKRGGTTYYADSVKGRFTISRDNAKNTVYLQMNSLKPEDTAVYYCNAAVRGVGELDYWGQGTQVTVSS	high polyreactivity
QVQLVESVGGLVQAGVSLRLSCAASGITFYGYAMGWYRQAPGKERELVATSTSGGSTYYADSVKGRFTISRDNAKNTVYLQMNSLKPVDTAVYYCAASRWYRRTRYGYWGQGTQLTVSS	high polyreactivity
QVQLVESVGGLVQEGGSLRLISAASGSIFGSNAMGWYRQAPGKEREMFAAISKSGGSTYYADSVKGRFTISRDNAKNTVYLQMNSLKPEDTAVFYCNPRWWVVTFYGRYEGDYWGQGTQVTVSS	low polyreactivity
QVQLVESVGGLVQEGGSLRLRCAASGSTFNKYTMGWYRQAPGKERELVAAISLRGGSTYYADSVKGRFTISRDNAKNTVYLQMNSLKPEDTAVYYCNADATHDWLRVDTYEYWGHGTQVTVSS	low polyreactivity
